{"source": "the FLAb antibody collection (doi:10.1101/2023.12.08.570889)", "target": "TSLP, Q969D9", "experiment": "Kd (SPR)"}
{"binder": "unnamed (protein) chain 1: QMQLVESGGGVVQPGRSLRLSCAASGFTFSTFAMHWVRQAPGKGLEWVAVIWYDGSNKHYADSVKGRFTITRDNSKNTLNLQMNSLRAEDTAVYYCARAPRYDWYYEAFDVWGQGTMVTVSS chain 2: SYVLTQPPSVSVAPGQTARITCGGNNLGSKSVHWYQQKPGQAPVLVVYDDSDRPSWIPERFSGSNSGNTATLTISRGEAGDEADYYCQVWDSSSDHVVFGGGTKLTVL", "values": [{"measurement": "Kd", "result": 90.8, "unit": "nM"}]}
{"binder": "unnamed (protein) chain 1: QMQLVESGGGVVQPGRSLRLSCAASGFTFSTYAMHWVRQAPGKGLEWVAVIWYDGSNKHYADSVKGRFTITRDNSKNTLNLQMNSLRAEDTAVYYCARAPRYDEYWEAFDVWGQGTMVTVSS chain 2: SYVLTQPPSVSVAPGQTARITCGGNNLGSKSVHWYQQKPGQAPVLVVYDDSDRPSWIPERFSGSNSGNTATLTISRGEAGDEADYYCQVWDSSSDHVVFGGGTKLTVL", "values": [{"measurement": "Kd", "result": 633, "unit": "nM"}]}
{"binder": "unnamed (protein) chain 1: QMQLVESGGGVVQPGRSLRLSCAASGFTFSTFAMHWVRQAPGKGLEWVAVIWYDGSNKHYADSVKGRFTITRDNSKNTLNLQMNSLRAEDTAVYYCARAPRYDERYEAFDVWGQGTMVTVSS chain 2: SYVLTQPPSVSVAPGQTARITCGGNNLGSKSVHWYQQKPGQAPVLVVYDDSDRPSWIPERFSGSNSGNTATLTISRGEAGDEADYYCQVWDSSSDHVVFGGGTKLTVL", "values": [{"measurement": "Kd", "result": 366, "unit": "nM"}]}
{"binder": "unnamed (protein) chain 1: QMQLVESGGGVVQPGRSLRLSCAASGFTFSTFAMHWVRQAPGKGLEWVAVIWYDGSNKHYADSVKGRFTITRDNSKNTLNLQMNSLRAEDTAVYYCARAPRYYWYYEAFDVWGQGTMVTVSS chain 2: SYVLTQPPSVSVAPGQTARITCGGNNLGSKSVHWYQQKPGQAPVLVVYDDSDRPSWIPERFSGSNSGNTATLTISRGEAGDEADYYCQVWDSSSDHVVFGGGTKLTVL", "values": [{"measurement": "Kd", "result": 96.6, "unit": "nM"}]}
{"binder": "unnamed (protein) chain 1: QMQLVESGGGVVQPGRSLRLSCAASGFTFSTYAMHWVRQAPGKGLEWVAVIWYDGSNKHYADSVKGRFTITRDNSKNTLNLQMNSLRAEDTAVYYCARAPRYDERYEAFDVWGQGTMVTVSS chain 2: SYVLTQPPSVSVAPGQTARITCGGNNLGSKSVHWYQQKPGQAPVLVVYDDSDRPSWIPERFSGSNSGNTATLTISRGEAGDEADYYCQVWDSSSDHVVFGGGTKLTVL", "values": [{"measurement": "Kd", "result": 686, "unit": "nM"}]}
{"binder": "unnamed (protein) chain 1: QMQLVESGGGVVQPGRSLRLSCAASGFTFSTYAMHWVRQAPGKGLEWVAVIWYDGSNKHYADSVKGRFTITRDNSKNTLNLQMNSLRAEDTAVYYCARAPRYDWYWEAFDVWGQGTMVTVSS chain 2: SYVLTQPPSVSVAPGQTARITCGGNNLGSKSVHWYQQKPGQAPVLVVYDDSDRPSWIPERFSGSNSGNTATLTISRGEAGDEADYYCQVWDSSSDHVVFGGGTKLTVL", "values": [{"measurement": "Kd", "result": 759, "unit": "nM"}]}
{"binder": "unnamed (protein) chain 1: QMQLVESGGGVVQPGRSLRLSCAASGFTFSTFAMHWVRQAPGKGLEWVAVIWYDGSNKHYADSVKGRFTITRDNSKNTLNLQMNSLRAEDTAVYYCARSPRYYEYYEAFDVWGQGTMVTVSS chain 2: SYVLTQPPSVSVAPGQTARITCGGNNLGSKSVHWYQQKPGQAPVLVVYDDSDRPSWIPERFSGSNSGNTATLTISRGEAGDEADYYCQVWDSSSDHVVFGGGTKLTVL", "values": [{"measurement": "Kd", "result": 44.5, "unit": "nM"}]}
{"binder": "unnamed (protein) chain 1: QMQLVESGGGVVQPGRSLRLSCAASGFTFSTFAMHWVRQAPGKGLEWVAVIWYDGSNKHYADSVKGRFTITRDNSKNTLNLQMNSLRAEDTAVYYCARAPRYYDYLEAFDVWGQGTMVTVSS chain 2: SYVLTQPPSVSVAPGQTARITCGGNNLGSKSVHWYQQKPGQAPVLVVYDDSDRPSWIPERFSGSNSGNTATLTISRGEAGDEADYYCQVWDSSSDHVVFGGGTKLTVL", "values": [{"measurement": "Kd", "result": 62.6, "unit": "nM"}]}
{"binder": "unnamed (protein) chain 1: QMQLVESGGGVVQPGRSLRLSCAASGFTFSTFAMHWVRQAPGKGLEWVAVIWYDGSNKHYADSVKGRFTITRDNSKNTLNLQMNSLRAEDTAVYYCARAPRYDEDWEAFDVWGQGTMVTVSS chain 2: SYVLTQPPSVSVAPGQTARITCGGNNLGSKSVHWYQQKPGQAPVLVVYDDSDRPSWIPERFSGSNSGNTATLTISRGEAGDEADYYCQVWDSSSDHVVFGGGTKLTVL", "values": [{"measurement": "Kd", "result": 894, "unit": "nM"}]}
{"binder": "unnamed (protein) chain 1: QMQLVESGGGVVQPGRSLRLSCAASGFTFSTYAMHWVRQAPGKGLEWVAVIWYDGSNKHYADSVKGRFTITRDNSKNTLNLQMNSLRAEDTAVYYCARSPRYDEYWEAFDVWGQGTMVTVSS chain 2: SYVLTQPPSVSVAPGQTARITCGGNNLGSKSVHWYQQKPGQAPVLVVYDDSDRPSWIPERFSGSNSGNTATLTISRGEAGDEADYYCQVWDSSSDHVVFGGGTKLTVL", "values": [{"measurement": "Kd", "result": 836, "unit": "nM"}]}
{"binder": "unnamed (protein) chain 1: QMQLVESGGGVVQPGRSLRLSCAASGFTFSTFAMHWVRQAPGKGLEWVAVIWYDGSNKHYADSVKGRFTITRDNSKNTLNLQMNSLRAEDTAVYYCARAPRYYDYYEAFDVWGQGTMVTVSS chain 2: SYVLTQPPSVSVAPGQTARITCGGNNLGSKSVHWYQQKPGQAPVLVVYDDSDRPSWIPERFSGSNSGNTATLTISRGEAGDEADYYCQVWDSSSDHVVFGGGTKLTVL", "values": [{"measurement": "Kd", "result": 56.8, "unit": "nM"}]}
{"binder": "unnamed (protein) chain 1: QMQLVESGGGVVQPGRSLRLSCAASGFTFSTYAMHWVRQAPGKGLEWVAVIWYDGSNKHYADSVKGRFTITRDNSKNTLNLQMNSLRAEDTAVYYCARAPRYYWYYEAFDVWGQGTMVTVSS chain 2: SYVLTQPPSVSVAPGQTARITCGGNNLGSKSVHWYQQKPGQAPVLVVYDDSDRPSWIPERFSGSNSGNTATLTISRGEAGDEADYYCQVWDSSSDHVVFGGGTKLTVL", "values": [{"measurement": "Kd", "result": 87.1, "unit": "nM"}]}
{"binder": "unnamed (protein) chain 1: QMQLVESGGGVVQPGRSLRLSCAASGFTFSTFAMHWVRQAPGKGLEWVAVIWYDGSNKHYADSVKGRFTITRDNSKNTLNLQMNSLRAEDTAVYYCARSPRYDDYLEAFDVWGQGTMVTVSS chain 2: SYVLTQPPSVSVAPGQTARITCGGNNLGSKSVHWYQQKPGQAPVLVVYDDSDRPSWIPERFSGSNSGNTATLTISRGEAGDEADYYCQVWDSSSDHVVFGGGTKLTVL", "values": [{"measurement": "Kd", "result": 80.5, "unit": "nM"}]}
{"binder": "unnamed (protein) chain 1: QMQLVESGGGVVQPGRSLRLSCAASGFTFSTFAMHWVRQAPGKGLEWVAVIWYDGSNKHYADSVKGRFTITRDNSKNTLNLQMNSLRAEDTAVYYCARAPRYDDYYEAFDVWGQGTMVTVSS chain 2: SYVLTQPPSVSVAPGQTARITCGGNNLGSKSVHWYQQKPGQAPVLVVYDDSDRPSWIPERFSGSNSGNTATLTISRGEAGDEADYYCQVWDSSSDHVVFGGGTKLTVL", "values": [{"measurement": "Kd", "result": 92.5, "unit": "nM"}]}
{"binder": "unnamed (protein) chain 1: QMQLVESGGGVVQPGRSLRLSCAASGFTFSTFAMHWVRQAPGKGLEWVAVIWYDGSNKHYADSVKGRFTITRDNSKNTLNLQMNSLRAEDTAVYYCARSPRYYDYYEAFDVWGQGTMVTVSS chain 2: SYVLTQPPSVSVAPGQTARITCGGNNLGSKSVHWYQQKPGQAPVLVVYDDSDRPSWIPERFSGSNSGNTATLTISRGEAGDEADYYCQVWDSSSDHVVFGGGTKLTVL", "values": [{"measurement": "Kd", "result": 41.8, "unit": "nM"}]}
{"binder": "unnamed (protein) chain 1: QMQLVESGGGVVQPGRSLRLSCAASGFTFSTYAMHWVRQAPGKGLEWVAVIWYDGSNKHYADSVKGRFTITRDNSKNTLNLQMNSLRAEDTAVYYCARSPRYYEYYEAFDVWGQGTMVTVSS chain 2: SYVLTQPPSVSVAPGQTARITCGGNNLGSKSVHWYQQKPGQAPVLVVYDDSDRPSWIPERFSGSNSGNTATLTISRGEAGDEADYYCQVWDSSSDHVVFGGGTKLTVL", "values": [{"measurement": "Kd", "result": 57, "unit": "nM"}]}
{"binder": "unnamed (protein) chain 1: QMQLVESGGGVVQPGRSLRLSCAASGFTFSTFAMHWVRQAPGKGLEWVAVIWYDGSNKHYADSVKGRFTITRDNSKNTLNLQMNSLRAEDTAVYYCARAPRYYEYYEAFDVWGQGTMVTVSS chain 2: SYVLTQPPSVSVAPGQTARITCGGNNLGSKSVHWYQQKPGQAPVLVVYDDSDRPSWIPERFSGSNSGNTATLTISRGEAGDEADYYCQVWDSSSDHVVFGGGTKLTVL", "values": [{"measurement": "Kd", "result": 106, "unit": "nM"}]}
{"binder": "unnamed (protein) chain 1: QMQLVESGGGVVQPGRSLRLSCAASGFTFSTFAMHWVRQAPGKGLEWVAVIWYDGSNKHYADSVKGRFTITRDNSKNTLNLQMNSLRAEDTAVYYCARAPRYDEHYEAFDVWGQGTMVTVSS chain 2: SYVLTQPPSVSVAPGQTARITCGGNNLGSKSVHWYQQKPGQAPVLVVYDDSDRPSWIPERFSGSNSGNTATLTISRGEAGDEADYYCQVWDSSSDHVVFGGGTKLTVL", "values": [{"measurement": "Kd", "result": 777, "unit": "nM"}]}
{"binder": "unnamed (protein) chain 1: QMQLVESGGGVVQPGRSLRLSCAASGFTFSTFAMHWVRQAPGKGLEWVAVIWYDGSNKHYADSVKGRFTITRDNSKNTLNLQMNSLRAEDTAVYYCARAPRYDDDYEAFDVWGQGTMVTVSS chain 2: SYVLTQPPSVSVAPGQTARITCGGNNLGSKSVHWYQQKPGQAPVLVVYDDSDRPSWIPERFSGSNSGNTATLTISRGEAGDEADYYCQVWDSSSDHVVFGGGTKLTVL", "values": [{"measurement": "Kd", "result": 112, "unit": "nM"}]}
